According to paper PMC9356133, “Regulatory mechanisms of lipopolysaccharide synthesis in Escherichia coli” (Nature Communications, 2022):

B1: LpxC labeled with Atto488 (enzyme, Escherichia coli strain CFT073, UniProt P0A725 1-305, looked up)
chain: MIKQRTLKRIVQATGVGLHTGKKVTLTLRPAPANTGVIYRRTDLNPPVDFPADAKSVRDTMLCTCLVNEHDVRISTVEHLNAALAGLGIDNIVIEVNAPEIPIMDGSAAPFVYLLLDAGIDELNCAKKFVRIKETVRVEDGDKWAEFKPYNGFSLDFTIDFNHPAIDSSNQRYAMNFSADAFMRQISRARTFGFMRDIEYLQSRGLCLGGSFDCAIVVDDYRVLNEDGLRFEDEFVRHKMLDAIGDLFMCGHNIIGAFTAYKSGHALNNKLLQAVLAKQEAWEYVTFQDDAELPLAFKAPSAVLA
modifications: Atto488 dye (Atto488 protein labeling kit, protein to dye ratio of 6:1)
notes: LpxC, amplified from Escherichia coli strain CFT073 genomic DNA; His tag removed by 3C protease; also called LpxC-Atto488; source: E. coli BL21 Star (DE3) pLysS, purified (Ni-NTA, 3C cleavage, gel filtration), labeled with Atto488; not shown: His tag, N-terminal, cleaved
B2: LapB cytoplasmic domain (LapB_(cyto)) (domain or fragment, Escherichia coli strain CFT073, UniProt P0AB58 21-389, looked up)
chain: RRSAQQNKQDEANRLSRDYVAGVNFLLSNQQDKAVDLFLDMLKEDTGTVEAHLTLGNLFRSRGEVDRAIRIHQTLMESASLTYEQRLLAIQQLGRDYMAAGLYDRAEDMFNQLTDETDFRIGALQQLLQIYQATSEWQKAIDVAERLVKLGKDKQRVEIAHFYCELALQHMASDDLDRAMTLLKKGAAADKNSARVSIMMGRVFMAKGEYAKAVESLQRVISQDRELVSETLEMLQTCYQQLGKTAEWAEFLQRAVEENTGADAELMLADIIEARDGSEAAQVYITRQLQRHPTMRVFHKLMDYHLNEAEEGRAKESLMVLRDMVGEKVRSKPRYRCQKCGFTAYTLYWHCPSCRAWSTIKPIRGLDGL

Assays:
FtsH (non-tagged) = FtsH (non-tagged) (Escherichia coli strain CFT073, UniProt P0AAI3 1-644); test: cell-based or functional assay
[1] = target: B2; test: inhibition of a protease assay (Kd calculated from the IC50); 0.06 μM FtsH/LapB complex on POPC liposomes, 1.8 μM LpxC-Atto488, 0-12.96 μM LapB_(cyto) in solution, 37 °C, 20 min; Kd = (IC50 – 2KM/3)/2; conditions: both partners purified
[2] = target: B1; test: cell-based or functional assay

FtsH (non-tagged), sequence (P0AAI3 whole entry): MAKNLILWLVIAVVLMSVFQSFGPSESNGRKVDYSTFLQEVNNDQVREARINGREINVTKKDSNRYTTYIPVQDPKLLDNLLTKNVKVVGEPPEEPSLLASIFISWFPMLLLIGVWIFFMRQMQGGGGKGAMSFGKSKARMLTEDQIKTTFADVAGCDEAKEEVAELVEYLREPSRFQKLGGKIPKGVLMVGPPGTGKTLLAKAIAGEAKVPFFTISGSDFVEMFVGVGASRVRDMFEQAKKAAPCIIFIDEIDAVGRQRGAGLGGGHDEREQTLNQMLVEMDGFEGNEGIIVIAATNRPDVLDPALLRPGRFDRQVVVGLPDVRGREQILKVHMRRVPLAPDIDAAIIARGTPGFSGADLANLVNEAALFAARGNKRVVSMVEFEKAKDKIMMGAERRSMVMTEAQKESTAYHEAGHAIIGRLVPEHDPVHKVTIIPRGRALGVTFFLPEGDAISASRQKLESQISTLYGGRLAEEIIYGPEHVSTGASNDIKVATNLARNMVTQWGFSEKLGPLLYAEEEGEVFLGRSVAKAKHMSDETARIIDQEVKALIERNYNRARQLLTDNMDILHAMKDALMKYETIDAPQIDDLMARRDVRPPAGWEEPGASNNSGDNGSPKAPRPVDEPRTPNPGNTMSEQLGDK

Binder | fold reduction by LapB of the KM for LpxC degradation by FtsH proteoliposomes (FtsH (non-tagged)) | Kd [1] | IC50 of inhibition of LpxC-Atto488 degradation by FtsH/LapB proteoliposomes (0-12.96 μM LapB_(cyto)) [2]
B1 | ~8 fold | 1340 nM | 
B2 |  |  | 3960 nM
